In one data set the target is GBX2ΔHD (mouse, UniProt P48031 1-94). Put plainly: EMSA; 940 pM probe, 720 nM GBX2; 2X binding buffer: 20 mM Tris-HCl pH 7.4, 50 mM KCl, 1 mM DTT, 10% glycerol, 200 ug/mL BSA, 2.2 ug/mL poly dI/dC; 30 min, 25 C; 6% native PAGE, Tris-glycine. To be noted: protein: recombinant; tags: V5-6xHis (pET101/D-TOPO); label: 32P end label; blunt. Background: A gel shift assay detects complexes by their altered migration in electrophoresis.

A further data set has as its target GBX2 full-length (mouse, UniProt P48031 1-348). In words: EMSA; supershift with anti-GBX2; 940 pM probe, 720 nM GBX2; 2X binding buffer: 20 mM Tris-HCl pH 7.4, 50 mM KCl, 1 mM DTT, 10% glycerol, 200 ug/mL BSA, 2.2 ug/mL poly dI/dC; 30 min, 25 C; 6% native PAGE, Tris-glycine. The following applies: protein: recombinant; tags: V5-6xHis (pET101/D-TOPO); label: 32P end label; blunt.

Sequence of GBX2 full-length (P48031 whole entry): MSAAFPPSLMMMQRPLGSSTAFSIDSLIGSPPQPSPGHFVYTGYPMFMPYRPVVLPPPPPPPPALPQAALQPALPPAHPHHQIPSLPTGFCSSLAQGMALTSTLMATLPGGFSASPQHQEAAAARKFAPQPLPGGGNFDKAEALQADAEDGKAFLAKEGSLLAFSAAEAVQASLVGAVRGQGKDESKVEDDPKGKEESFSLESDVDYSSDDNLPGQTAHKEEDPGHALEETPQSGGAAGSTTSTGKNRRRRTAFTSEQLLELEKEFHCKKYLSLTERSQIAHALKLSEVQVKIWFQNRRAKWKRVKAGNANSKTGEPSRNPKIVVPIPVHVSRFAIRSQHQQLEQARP
Sequence of GBX2ΔHD (P48031 1-94, stated change not applied): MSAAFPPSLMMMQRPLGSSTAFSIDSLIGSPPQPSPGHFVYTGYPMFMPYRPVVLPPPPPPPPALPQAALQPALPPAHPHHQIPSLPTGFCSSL

B1: PCDH15 100-mer probe (dsDNA)
DNA 1: TTACAATTTCATTTGTACAGGTAAGTATATACTTTTCTTTCATTGTTTCTTTTTAATATTCCCATTAGTGGGAATTCAGGCTATCTGTCTCTTACCTATC
DNA 2: GATAGGTAAGAGACAGATAGCCTGAATTCCCACTAATGGGAATATTAAAAAGAAACAATGAAAGAAAAGTATATACTTACCTGTACAAATGAAATTGTAA
For B1, the binding result with GBX2ΔHD is listed as “no binding”; in the data set with GBX2 full-length, “binds”.

The values are drawn from paper PMC3493575, “Elongation Factor 1 alpha1 and Genes Associated with Usher Syndromes Are Downstream Targets of GBX2”.
